This note sets out measurements from patent publication US20130171130A1 (ZymoGenetics, published 2013).

For test [1], the target named is T1, IL-20RA/IL-20RB heterodimeric receptor (human, UniProt Q9UHF4 30-553; Q6UXL0 30-311).
T1 construct: Both subunits co-expressed on transfected COS, BHK or BaF3 cells, or endogenous on HaCaT keratinocytes; also called IL-20RB/IL-20RA heterodimer; IL-20 receptor
T1 sequence 1: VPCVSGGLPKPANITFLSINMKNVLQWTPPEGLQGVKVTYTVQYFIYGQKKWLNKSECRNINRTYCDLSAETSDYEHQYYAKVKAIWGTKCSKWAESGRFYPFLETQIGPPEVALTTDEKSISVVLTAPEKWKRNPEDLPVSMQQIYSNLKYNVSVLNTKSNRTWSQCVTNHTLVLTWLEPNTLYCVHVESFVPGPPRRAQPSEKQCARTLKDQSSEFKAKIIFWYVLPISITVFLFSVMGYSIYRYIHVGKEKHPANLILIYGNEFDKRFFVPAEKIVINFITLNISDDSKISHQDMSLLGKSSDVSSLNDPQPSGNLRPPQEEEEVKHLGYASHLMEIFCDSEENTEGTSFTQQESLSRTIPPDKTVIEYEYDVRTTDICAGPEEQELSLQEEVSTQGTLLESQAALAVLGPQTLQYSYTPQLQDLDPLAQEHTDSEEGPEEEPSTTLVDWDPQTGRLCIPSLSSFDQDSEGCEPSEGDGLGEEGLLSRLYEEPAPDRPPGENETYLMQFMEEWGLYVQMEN
T1 sequence 2: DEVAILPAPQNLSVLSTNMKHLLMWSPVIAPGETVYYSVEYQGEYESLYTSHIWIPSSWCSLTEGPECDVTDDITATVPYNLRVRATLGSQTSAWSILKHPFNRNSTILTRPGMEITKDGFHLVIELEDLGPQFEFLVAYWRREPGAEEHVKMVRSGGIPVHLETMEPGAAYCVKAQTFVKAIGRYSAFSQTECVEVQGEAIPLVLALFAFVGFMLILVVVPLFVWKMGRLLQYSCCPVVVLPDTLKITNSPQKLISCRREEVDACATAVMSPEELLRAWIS
As to the kind of experiment: 125I-labeled IL-20 binding on BHK cells expressing IL-20RA and IL-20RB. On the procedure: (§1) The specificity and affinity of IL-20 for its receptor was determined using BHK cells stably transfected with IL-20RA, IL-20RB or both receptor subunits. […] Binding of ¹²⁵I-labeled IL-20 was eliminated in the presence of 100-fold excess of unlabeled IL-20 but not with 100-fold excess of the unrelated cytokine, IL-21.

Test [2] has as its target T2, IL-20RB (expressed alone on BHK cells) (human, UniProt Q6UXL0 30-311).
T2 construct: BHK cells stably transfected with IL-20RB only; also called DIRS1; IL-20 receptor beta chain
T2 sequence: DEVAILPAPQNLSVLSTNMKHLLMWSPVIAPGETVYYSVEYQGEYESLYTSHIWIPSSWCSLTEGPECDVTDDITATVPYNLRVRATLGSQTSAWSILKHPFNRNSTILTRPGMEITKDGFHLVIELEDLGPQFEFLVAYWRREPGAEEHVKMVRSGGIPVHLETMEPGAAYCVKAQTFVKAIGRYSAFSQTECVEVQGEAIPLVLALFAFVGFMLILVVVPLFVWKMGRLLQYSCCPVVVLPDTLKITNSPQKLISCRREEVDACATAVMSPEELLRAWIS
As to the kind of experiment: radiolabeled ligand binding on stably transfected BHK cells. On the procedure: as §1

The target of test [3] is T3, IL-20RA (expressed alone on BHK cells) (human, UniProt Q9UHF4 30-553).
T3 construct: BHK cells stably transfected with IL-20RA only; also called ZcytoR7; IL-20 receptor alpha chain
T3 sequence: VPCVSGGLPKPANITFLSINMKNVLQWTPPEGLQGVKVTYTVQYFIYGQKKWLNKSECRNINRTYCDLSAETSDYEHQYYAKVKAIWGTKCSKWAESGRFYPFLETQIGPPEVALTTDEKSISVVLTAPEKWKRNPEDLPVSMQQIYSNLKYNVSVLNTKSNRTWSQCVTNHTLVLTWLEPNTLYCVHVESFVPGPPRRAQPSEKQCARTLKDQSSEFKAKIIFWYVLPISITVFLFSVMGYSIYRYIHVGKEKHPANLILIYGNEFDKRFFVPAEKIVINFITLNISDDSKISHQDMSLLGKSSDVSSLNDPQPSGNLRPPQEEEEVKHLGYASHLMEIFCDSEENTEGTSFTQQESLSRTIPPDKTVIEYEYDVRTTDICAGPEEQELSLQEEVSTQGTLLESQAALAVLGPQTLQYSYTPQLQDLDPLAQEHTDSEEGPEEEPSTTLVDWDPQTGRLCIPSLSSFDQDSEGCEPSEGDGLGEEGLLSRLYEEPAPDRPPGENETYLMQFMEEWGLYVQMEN
The test is described as above. On the procedure:
as §1

B1: IL-20 (Interleukin-20) (ligand, UniProt Q9NYY1 25-176, looked up)
chain: LKTLNLGSCVIATNLQEIRNGFSEIRGSVQAKDGNIDIRILRRTESLQDTKPANRCCLLRHLLRLYLDRVFKNYQTPDHYTLRKISSLANSFLTIKKDLRLCHAHMTCHCGEEAMKKYSQILSHFEKLEPQAAVVKALGELDILLQWMEETE
notes: also called Zcyto10; IL-20 protein
The term Kd denotes the free concentration of one partner at which half of the binding sites on the other are occupied at equilibrium, for simple one-to-one binding. Read a low Kd as a tighter complex. As to B1, the Kd in test [1] is ~1.5 nM. Also, the binding result in test [2] and in test [3] was “no binding” each time.
